Legend:
[1] = system: Diamondback moth (Plutella xylostella); assay: Diet-surface overlay (DSO) bioassay on Diamondback moth; format: in vivo; conditions: 7 days
Experimental: (§1) Diet-surface overlay bioassays are conducted with artificial diet mixes without antibiotics in 1.5 cm^2 cell bioassay trays(s). Artificial diets are commercially available from Southland Products Inc. Diets were prepared by dispersing 0.5 mL of molten diet to each 1.5 cm^2 cell. After solidification, 0.1 mL enzyme treatments were dispersed on top of diet in each cell and the tray was gently rocked in an orbital shaker to spread the liquid uniformly over the diet surface. Trays were placed under clean airflow until the surface of each cell was uniformly dried. One or two 16-cell sections were used per treatment (the number in larvae treated was 16 or 32).
(§2) One healthy first instar larva was placed into each treatment cell, each 16-cell section was covered with a re-sealable lid and incubated at 27° C. and light-dark period of 16:8 hrs. After 7 days, and according to the species, the number of individuals in the following developmental categories was recorded.
(§3) Diamondback moth (Plutella xylostella): Dead Larva (lack of movement), Larva Stage I (≤50% relative size), Larva Stage II (100% relative size, full size), Early Pupa (light green color), Late Pupa (light-dark brown color), and Adult.
(§4) Negative/untreated controls were treated with filtered water and positive controls were treated with lethal doses of Bacillus thuringiensis subsp. Kurstaki (Btk) spores at 1000 ppm.

[2] = system: Btk resistant Diamondback moth; assay: Diet-surface overlay (DSO) bioassay on Btk resistant Diamondback moth; format: in vivo, Plutella xylostella; conditions: 7 days
Experimental: as §1, §2, §3, §4
However, both neutral proteases reduced the number of individuals reaching adult stage.
The effect of lipase (10× enzyme rate) and free lipases were tested on a Diamondback Moth Btk resistant strain. Free Lipases from Burkholderia cepacia (Bc) and Pseudomonas fluorescens (Pf) were tested along with Lipase (SEQ ID NO: 76) and the results are shown below in Table 45.

[3] = system: soybean cyst nematode (SCN, Heterodera glycines); assay: Soybean cyst nematode reproduction on soybean after seed treatment, controlled environment (cysts per gram of root tissue or per plant); format: in vivo; conditions: for % Comparison to Control (figure in parentheses): change vs base control; for Average cysts per g of root tissue: soybean 2830E3
[4] = system: SCN juveniles (SCN HG type 1.2.5.7, race 2); assay: In-vitro plate assay of SCN juvenile viability (difference in percent death); format: in vivo; conditions: Table 32, 40 μL per well of each treatment, water only 4%
Experimental: (§5) SCN eggs were obtained from SCN HG type 1.2.5.7, race 2. Eggs were rinsed 4 times with sterile water. Eggs were transferred to a 6-well plate and resuspended in 5 mL of 3 mM ZnSO4. The plate was sealed with parafilm, covered with aluminum foil to prevent light from entering the plate, and placed in a plate growth chamber at 25° C. and 80% relative humidity. After 6-7 days of incubation, an estimate of hatched SCN juveniles was obtained from the well to determine the overall number of juveniles per 10 μL. The concentration of the hatchery solution was adjusted until it consisted of 20-30 juveniles per 10 μL.
Potato dextrose agar media containing chloramphenicol and chlortetracycline was prepared and added to sterile twenty-four-well cell culture plates (1 mL per well). The plates were divided according to the pre-determined N-value for each treatment (N=12-24). Each treatment being tested was added to the agar surface within each well at a rate of 40 μL per well. Without allowing the treatments to dry, 10 μL of the prepared nematode mixture was added to the agar surface within each well.
To quantify the treatments' effects on nematode viability, the nematodes were examined under a dissecting microscope at 20× magnification. Initial (TO) values for the number of live juveniles, number of dead juveniles and total number of juveniles were recorded immediately after preparation of each well. The plates were then wrapped in parafilm around the open edge, encased in aluminum foil, and placed in secondary containment. The secondary containment was placed in a plant growth chamber at 25° C. and 80% relative humidity. At approximately 24 hours post addition of juveniles, the plates were evaluated, and the number of live juveniles, dead juveniles and total number of juveniles were recorded (T24).
The difference in percent death at T0 vs T24 was calculated by subtracting the percent dead at TO [(#dead juveniles/total #juveniles)×100] from the percent dead at T24 [(#dead juveniles/#total juveniles originally present)×100]. […] If the ANOVA indicated a significant difference existed among treatments, Tukey's HSD post hoc test was used to perform a pairwise contrast between each set of treatments. Different letters denote statistically significant results at P<0.05.
as §5, with “from” for “from SCN”, “rinsed four” for “rinsed 4”, “and 80-90%” for “and 80%”, “from each” for “from the”
Potato dextrose agar media containing chloramphenicol and chlortetracycline was prepared and added to sterile twenty-four-well cell culture plates (1 mL per well). The plates were divided according to the pre-determined N-value for each treatment (N=24). […]
To quantify the treatments' effects on nematode viability, the nematodes were examined under a dissecting microscope at 20× magnification. Initial (TO) values for the number of live juveniles, number of dead juveniles and total number of juveniles were recorded. […]

[5] = Table 44, number of individuals, n = 16
[6] = Table 45, number of individuals, n = 32

B1: Lipase (SEQ ID NO: 76): Recombinant lipase from Bacillus thuringiensis; Bacillus thuringiensis Lipase (Lip1) (protein, listed as Bacillus thuringiensis)
chain: MRLMRRCVALLIVFFIMAPMISTNVRAGVVKELKTGFPDQEVFTPGEWFLGQKPANYDENKPPILFVQGRNGNADSWYGKTVYHDINDMYDYALKAGYQTVFIQLYDAAGKGSASQWDNGKLLAQKLEEIYNHFGKKVNIVAHSKGGIDTQAALVGYGANRFVGNVITLATPHHGSNLADLSYSWWAGWLASILGQKDDGTYSLQMGEMAKFRSTIDNNPAAKLNRYYTVTGTSWGPVFSALSMGGLYLSSYGSNDGLVNECSAKLPYGTHLFTDSRFDHDNIRKGSAVFARIEPYLRTANVPVPALVASSTSSNENIEQLNTTSNQSILGGELPQNQWIEQTVAVDKKAEGIVSILTASSDVEVQMISPKGKVYTNKDSVITTGEGESFFGGATIRTFKFDKMDVGEWKVKMMTKQSKDAYLVVSDYKTGAPFVLQMPTKVKANKSEYKLKKSPVAPEMKGDLSITVRVVNKEGKLVSEFNELQNVNNNTFTGALKNIKQPGVYNVTMDIKGMNKEGKSYSRTIVKSVYVEK
modifications: Lipase (Lip1 H192)
[1]; DSO bioassay
  Effect on survival and development of Diamondback moth (in words): delayed larva-pupa development
[1]; Table 44, lipases, number of individuals, n = 16
  Dead Larva: 0
[1]; [5]
  Adult: 0
  Early Pupa: 3
  Larva Stage I: 0
  Larva Stage II: 0
  Late Pupa: 13
[2]; DSO bioassay
  Effect on survival and development of Btk resistant Diamondback moth (in words): clear delay of larva-pupa development
[2]; Table 45, lipases, number of individuals, n = 32, Btk resistant strain per text
  Dead Larva: 1
[2]; [6]
  Adult: 0
  Early Pupa: 10
  Larva Stage I: 9
  Larva Stage II: 12
  Late Pupa: 0

B2: Bacillus thuringiensis Lipase 2 (SEQ ID NO: 251): Bacillus thuringiensis Lipase 2 (protein, listed as Bacillus thuringiensis)
chain: EVVKELGKGFPDTEVFTPGEWFLGQKPANYDENKPPILFVQGRNGNADSWYGKTVYHDINDMYDYALKAGYQTVFIQLYDAAGKGSASQWDNGKLLAQKLEEIYNYFGKKVNIVAHSKGGIDTQAALVEYGANRFVGNVITLATPHHGSNLADLSYSWWAGWLASILGQKDDGTYSLQIGEMAKFRSIIDNNPAAKLNRYYTATGTSWGPTFSALSMGGLYLSSYGSNDGLVNEWSAKLSYGTHLFTDSRFDHDNIRKGSAVFARIEPYLRTTNVGLPALVASSTSSNEDLEQLNTTSNQNILGGELPQNQWIEQSISVDKKAEGIVSVLTASSDVEVQMVSPKGKIYANKDSAITTGEGESFFNRATIRTFKFDKLEVGEWKIKMMAKQSKDAYLVVSDYKDDAPFVLRMPTKVKINKPEYKLKKSPVAPEMKGDLSITVRVVNKEGKLVSEFNELQNVNTNTFTGALKDIKQPGVYNVTMDIKGMNKEGKPYNRTIVKSVYVEK
[3]; Table 20
  % Comparison to Control (figure in parentheses): −43%
[3]; Table 20, free enzyme seed treatment
  Average cysts per g of root tissue: 264.3 cysts per g of root tissue

B3: Collagenase B (SEQ ID NO: 208): Bacillus pumulis Collagenase B (ColB) (protein, listed as Bacillus pumulis, listed as Bacillus pumilus)
chain: IVNGKRVITKKPELLAPAGNLEKLKIAVHYGADAVFIGGQEYGLRSNADNFTIEEIAEGVEFAKKYGAKIYVTTNIFAHNENMDGLEDYLKALGDANVAGIIVADPLIIETCRRVAPNVEVHLSTQQSLSNWKAVQFWKEEGLDRVVLARETSALEIREMKEKVDIEIESFIHGAMCIAYSGRCVLSNHMTARDSNRGGCCQSCRWDYDLYQTDGANAVALYGEEDAPFAMSPKDLKLIESIPKMIEMGIDSLKIEGRMKSIHYVATVVSVYRKVIDAYCADPENFVIQKEWLEELDKCANRDTATAFFEGTPGYEEQMFGEHAKKTTYDFVGLVLNYDEDTQMVTLQQRNFFKKGDEVEFFGPEIENFTHTIETIWDEDGNELDAARHPLQIVKFKLDKKIYPSNMMRKGK
modifications: Collagenase B (ColB)
[3]; Table 22
  % Comparison to Control (figure in parentheses): −85%
[3]; Table 22, free enzyme seed treatment
  Average cysts per g of root tissue: 70.9 cysts per g of root tissue

B4: Pseudomonas sp. esterase (SEQ ID NO: 248): Pseudomonas sp. Esterase (protein, listed as Pseudomonas sp.)
chain: MTEPLILQPVKPADACVIWLHGLGADRYDFLPVAEALQEILLSTRFVLPQAPTRPVTINGGYAMPSWYDIKAMSPARAIDRDELEASADRIIELIEEQRSSGIDASRIFLAGFSQGGAVVYHTAFLKWQGPLGGVLALSTYAPTFSDELELSASQQRIPVLSLHGQFDNVVQNSMGRTAYEYLKAHGVTVTWQEYPMEHEVLPEEIRDIGTWLSERLR
[3]; Table 16
  % Comparison to Control (figure in parentheses): −10%
[3]; Table 16, free enzyme or 4x concentrate seed treatment
  Average cysts per g of root tissue: 220.2 cysts per g of root tissue
[4]
  Difference in Percent Death of Nematodes for 0 to 24 Hours: 22%
[4]; listed as Pseudomonas sp. esterase free enzyme (SEQ ID NO: 248)
  Difference in Percent Death of Nematodes for 0 to 24 Hours: 22%
